From the nanobody polyreactivity screen of Harvey et al. (2022)

Experiment: yeast display, Sf9 membrane polyspecificity reagent, FACS + sequencing; frameworks hold sequencing errors
In short: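 Nanobodies from a synthetic yeast display library (Saccharomyces cerevisiae BJ5465), induced 36–48 hours with galactose, were stained 1 hour at 4 °C with 10% biotinylated, detergent-solubilized Sf9 membrane reagent, enriched on streptavidin microbeads, then FACS-sorted. Anti-HA (expression) and streptavidin (reagent binding) fluorescence set low and high (top ~1%) gates. Polyreactivity labels come from the gate of origin. Genes were colony-PCR amplified, MiSeq 2 × 250 sequenced and filtered by CDR length.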

Sequence	polyreactivity (PSR sort gate)
QVQLVESGGGLVQAGGSLRLSCAASGITFAPYAMGRYRQAPGKERELVAAIRGSTTSTYYADSVKGRFTISRDNAKNTVYLQINSLKPEDTAVYYCAAAGWKGLGRFYSWGQGTQVTLSS	high polyreactivity
QVQLVESGGGLVQAGGSLRLSCAASGITFAQYAMGWYRQAPGKEREVVAGITRSGGSTHYADSVKGRFTISRDNAKNTVYLQMNSLKPEDTAVYYCNARYPYRGKRKPSDYWGQGTQVTVSS	high polyreactivity
QVQLVESGGGLVQAGGSLRLSCAASGITFARYAMGWYRQAPGKERELVAAISQSGGSTYYADSVKGRFTISRDNAKNTVYLQMNSLKPEDTAVYYCNAYYVNYVSNYEYWGQGTQVTVSS	high polyreactivity
QVQLVESGGGLVQAGGSLRLSCAASGITFARYAMGWYRQAPGKERELVAAITRSGGSTNYADSVKGRFTISRDNAKNTVYLQMNSLKPEDTAVYYCAAAGYRFRFVYSRYEYWGQGTQVTVSS	high polyreactivity
QVQLVESGGGLVQAGGSLRLSCAASGITFARYTMGWYRQAPGKERELVAAITWSGGRTYYADSVKGRFTISRDNAKNTVYLQMNSLKPEDTAVYYCNVDLGRYGTSSGASVGYGDYDYWGQGTQVTVSS	high polyreactivity
QVQLVESGGGLVQAGGSLRLSCAASGITFAYNAMGWYRQAPGKERELVATISIGGNTNYADSVKGRFTISRDNAKNTVYLQMNSLKPEDTAVYYCNADFPHEGGFCYWGQGTQVTVSS	low polyreactivity
QVQLVESGGGLVQAGGSLRLSCAASGITFAYNAMGWYRQEPGKERELVARITSGGRTYYADSVKGRFTISRDNAKNTVYLQMNSLKPEDTAVYYCATPYTSYLYGYDYWGQGTQVTVSS	low polyreactivity
QVQLVESGGGLVQAGGSLRLSCAASGITFAYYAMGWYRQAPGKERELVAAIRGGTNTYYADSVKGRFTISRDNAKYTVYLQMNSLKPEDTGVYYCAVRLYLEMDYWGQGTQVTVSS	high polyreactivity
QVQLVESGGGLVQAGGSLRLSCAASGITFAYYAMGWYRQAPGKERELVAAISSTGSSTYYADSVKGRFTISRDNAKNTVYLQMNSLKPEDTAVYYCNKLQQYTLSEYWGQGTQVTVSS	high polyreactivity
QVQLVESGGGLVQAGGSLRLSCAASGITFAYYAMGWYRQAPGTEREWVAAISRSGGGTYYADSVKGRFTISRDNAKNTVYLQMNTLIPEDTAVYYCNKDYPYYNSGPWAYKFDYCGQGTQVTVSS	high polyreactivity
QVQLVESGGGLVQAGGSLRLSCAASGITFAYYTMGWYRQAPGKERELVAGISSSGGRTYYADSVKGRFTISRDNAKNTVYLQMNSLKPEDTAVYYCAARFGYRGSTYTLTYGYWGQGTQVTVSS	high polyreactivity
QVQLVESGGGLVQAGGSLRLSCAASGITFDAHAMGWYRQAPGKERELVARISSGGSTNYADSVKGRFTISRDNAKNTVYLQMNSLKPEDTAVYYCANSYLYGFDYWGQGTQVTVSS	low polyreactivity
QVQLVESGGGLVQAGGSLRLSCAASGITFDDYAMGWYRQAPGKERELVAAISVSGGDTYYADSVKGRFTISRDNAKNTVYLQMNSLKPEDSAVYYCAAEEVSPRWYDYWGLGTQVTVSS	low polyreactivity
QVQLVESGGGLVQAGGSLRLSCAASGITFDENTMGWYRQAPGKERELVAAITEIGGSTYYADSVKGRFTISRDNAKNTVYLQMNSLKPEDTAVYYCNAARWVVRFVDYEYWGQGTQVTVSS	low polyreactivity
QVQLVESGGGLVQAGGSLRLSCAASGITFDGYAMGWYRQAPGKETELVAANSWSGGRTYYADSVKGRFTISRDNAKNTVYLQMNSLKPEDTAVYYCGVYRRGVVYLLTSGVDYWGQGTQVTVSS	high polyreactivity
QVQLVESGGGLVQAGGSLRLSCAASGITFDGYDMGWYRQAPGKEREMVATIDSGGITYYADSVKGRFTISRDNAKNTVYLQMNSLKPEDTAVYYCNADEWYYNFDIVEFDYWGQGTQVTVSS	low polyreactivity
QVQLVESGGGLVQAGGSLRLSCAASGITFDHYAMGWYRQAPGKERELVAAITSGGNTNYADSVKGRFTISRDNAKNTVYLQMNSLKPEDTAVYYCNARYDVWYYYWGQGTQVTVSS	high polyreactivity
